According to US20230357348A1 (AstraZeneca / MedImmune, published 2023):
Values belong to the binder of their own block, whether it stands above or below them. Starred links: 1 amine or outer side, 2 acyl side, 3 side chain; linkers in the order of their positions; H or OH if unused. Non-standard residues stand in square brackets, D forms with d. Groups on a side chain read outwards from the residue. No end group written: not given here. *: point of attachment. C20 diacid = O=C(O)CCCCCCCCCCCCCCCCCCC(=O)*; C18 diacid = O=C(O)CCCCCCCCCCCCCCCCC(=O)*; γGlu = O=C(O)[C@H](CCC(=O)[*:2])N[*:1]; αMeF = C[C@](N)(Cc1ccccc1)C(=O)O; AEEA = NCCOCCOCC(=O)O; Aib = CC(C)(N)C(=O)O

Assays:
[1] = target: human GLP-1 receptor (hGLP-1R) (human, UniProt P43220 24-463); assay: cell-based or functional assay
[2] = target: human glucagon receptor (hGCGR) (human, UniProt P47871 26-477); assay: cell-based or functional assay
Sequence of human glucagon receptor (hGCGR) (P47871 26-477): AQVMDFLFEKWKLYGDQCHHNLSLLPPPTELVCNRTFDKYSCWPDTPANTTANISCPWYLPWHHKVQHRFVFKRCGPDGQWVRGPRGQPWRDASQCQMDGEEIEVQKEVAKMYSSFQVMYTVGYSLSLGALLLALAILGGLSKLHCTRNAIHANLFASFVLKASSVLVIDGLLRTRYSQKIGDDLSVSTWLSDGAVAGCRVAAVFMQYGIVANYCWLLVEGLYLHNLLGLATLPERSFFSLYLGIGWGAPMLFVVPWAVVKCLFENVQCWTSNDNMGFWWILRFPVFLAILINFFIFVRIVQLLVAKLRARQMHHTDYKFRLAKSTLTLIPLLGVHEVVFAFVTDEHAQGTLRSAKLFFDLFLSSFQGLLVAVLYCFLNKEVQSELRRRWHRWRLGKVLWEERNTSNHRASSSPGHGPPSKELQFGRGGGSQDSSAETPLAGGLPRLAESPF

B1: Peptide 149 (peptide)
peptide: H[Aib]QGTFTSDVSK[αMeF]LDSK([AEEA-AEEA-γGlu-C18 diacid])RAQDFVRWVVE[Aib]G-OH
modifications: N-terminus assumed
SMILES: CC(C)C[C@H](NC(=O)[C@](C)(Cc1ccccc1)NC(=O)[C@H](CCCCN)NC(=O)[C@H](CO)NC(=O)[C@@H](NC(=O)[C@H](CC(=O)O)NC(=O)[C@H](CO)NC(=O)[C@@H](NC(=O)[C@H](Cc1ccccc1)NC(=O)[C@@H](NC(=O)CNC(=O)[C@H](CCC(N)=O)NC(=O)C(C)(C)NC(=O)[C@@H](N)Cc1c[nH]cn1)[C@@H](C)O)[C@@H](C)O)C(C)C)C(=O)N[C@@H](CC(=O)O)C(=O)N[C@@H](CO)C(=O)N[C@@H](CCCCNC(=O)COCCOCCNC(=O)COCCOCCNC(=O)CC[C@H](NC(=O)CCCCCCCCCCCCCCCCC(=O)O)C(=O)O)C(=O)N[C@@H](CCCNC(=N)N)C(=O)N[C@@H](C)C(=O)N[C@@H](CCC(N)=O)C(=O)N[C@@H](CC(=O)O)C(=O)N[C@@H](Cc1ccccc1)C(=O)N[C@H](C(=O)N[C@@H](CCCNC(=N)N)C(=O)N[C@@H](Cc1c[nH]c2ccccc12)C(=O)N[C@H](C(=O)N[C@H](C(=O)N[C@@H](CCC(=O)O)C(=O)NC(C)(C)C(=O)NCC(=O)O)C(C)C)C(C)C)C(C)C
hGLP-1R EC50 (pM) [1]: 8.71 pM
hGluc-R EC50 (pM) [2]: 2650 pM

B3: Peptide 152 (peptide)
peptide: H[Aib]QGTFTSDVSK[αMeF]LDSK([AEEA-AEEA-γGlu-C18 diacid])RAQDFVRWLL[Aib]E-OH
modifications: N-terminus assumed
SMILES: CC(C)C[C@H](NC(=O)[C@H](Cc1c[nH]c2ccccc12)NC(=O)[C@H](CCCNC(=N)N)NC(=O)[C@@H](NC(=O)[C@H](Cc1ccccc1)NC(=O)[C@H](CC(=O)O)NC(=O)[C@H](CCC(N)=O)NC(=O)[C@H](C)NC(=O)[C@H](CCCNC(=N)N)NC(=O)[C@H](CCCCNC(=O)COCCOCCNC(=O)COCCOCCNC(=O)CC[C@H](NC(=O)CCCCCCCCCCCCCCCCC(=O)O)C(=O)O)NC(=O)[C@H](CO)NC(=O)[C@H](CC(=O)O)NC(=O)[C@H](CC(C)C)NC(=O)[C@](C)(Cc1ccccc1)NC(=O)[C@H](CCCCN)NC(=O)[C@H](CO)NC(=O)[C@@H](NC(=O)[C@H](CC(=O)O)NC(=O)[C@H](CO)NC(=O)[C@@H](NC(=O)[C@H](Cc1ccccc1)NC(=O)[C@@H](NC(=O)CNC(=O)[C@H](CCC(N)=O)NC(=O)C(C)(C)NC(=O)[C@@H](N)Cc1c[nH]cn1)[C@@H](C)O)[C@@H](C)O)C(C)C)C(C)C)C(=O)N[C@@H](CC(C)C)C(=O)NC(C)(C)C(=O)N[C@@H](CCC(=O)O)C(=O)O
hGLP-1R EC50 (pM) [1]: 11.9 pM
hGluc-R EC50 (pM) [2]: 20.4 pM

B4: Peptide 150 (peptide)
peptide: H[Aib]QGTFTSDVSK[αMeF]LDSK([AEEA-AEEA-γGlu-C18 diacid])RAQDFVQWLL[Aib]TE-OH
modifications: N-terminus assumed
SMILES: CC(C)C[C@H](NC(=O)[C@H](Cc1c[nH]c2ccccc12)NC(=O)[C@H](CCC(N)=O)NC(=O)[C@@H](NC(=O)[C@H](Cc1ccccc1)NC(=O)[C@H](CC(=O)O)NC(=O)[C@H](CCC(N)=O)NC(=O)[C@H](C)NC(=O)[C@H](CCCNC(=N)N)NC(=O)[C@H](CCCCNC(=O)COCCOCCNC(=O)COCCOCCNC(=O)CC[C@H](NC(=O)CCCCCCCCCCCCCCCCC(=O)O)C(=O)O)NC(=O)[C@H](CO)NC(=O)[C@H](CC(=O)O)NC(=O)[C@H](CC(C)C)NC(=O)[C@](C)(Cc1ccccc1)NC(=O)[C@H](CCCCN)NC(=O)[C@H](CO)NC(=O)[C@@H](NC(=O)[C@H](CC(=O)O)NC(=O)[C@H](CO)NC(=O)[C@@H](NC(=O)[C@H](Cc1ccccc1)NC(=O)[C@@H](NC(=O)CNC(=O)[C@H](CCC(N)=O)NC(=O)C(C)(C)NC(=O)[C@@H](N)Cc1c[nH]cn1)[C@@H](C)O)[C@@H](C)O)C(C)C)C(C)C)C(=O)N[C@@H](CC(C)C)C(=O)NC(C)(C)C(=O)N[C@H](C(=O)N[C@@H](CCC(=O)O)C(=O)O)[C@@H](C)O
hGLP-1R EC50 (pM) [1]: 166 pM
hGluc-R EC50 (pM) [2]: 355 pM

Continued, values first:

hGLP-1R EC50 (pM) [1]: 111 pM
hGluc-R EC50 (pM) [2]: 178 pM
B2: Peptide 151 (peptide)
peptide: H[Aib]QGTFTSDVSK[αMeF]LDSK([AEEA-AEEA-γGlu-C20 diacid])RAQDFVRWLL[Aib]TE-OH
modifications: N-terminus assumed
SMILES: CC(C)C[C@H](NC(=O)[C@H](Cc1c[nH]c2ccccc12)NC(=O)[C@H](CCCNC(=N)N)NC(=O)[C@@H](NC(=O)[C@H](Cc1ccccc1)NC(=O)[C@H](CC(=O)O)NC(=O)[C@H](CCC(N)=O)NC(=O)[C@H](C)NC(=O)[C@H](CCCNC(=N)N)NC(=O)[C@H](CCCCNC(=O)COCCOCCNC(=O)COCCOCCNC(=O)CC[C@H](NC(=O)CCCCCCCCCCCCCCCCCCC(=O)O)C(=O)O)NC(=O)[C@H](CO)NC(=O)[C@H](CC(=O)O)NC(=O)[C@H](CC(C)C)NC(=O)[C@](C)(Cc1ccccc1)NC(=O)[C@H](CCCCN)NC(=O)[C@H](CO)NC(=O)[C@@H](NC(=O)[C@H](CC(=O)O)NC(=O)[C@H](CO)NC(=O)[C@@H](NC(=O)[C@H](Cc1ccccc1)NC(=O)[C@@H](NC(=O)CNC(=O)[C@H](CCC(N)=O)NC(=O)C(C)(C)NC(=O)[C@@H](N)Cc1c[nH]cn1)[C@@H](C)O)[C@@H](C)O)C(C)C)C(C)C)C(=O)N[C@@H](CC(C)C)C(=O)NC(C)(C)C(=O)N[C@H](C(=O)N[C@@H](CCC(=O)O)C(=O)O)[C@@H](C)O

hGLP-1R EC50 (pM) [1]: 41.2 pM
hGluc-R EC50 (pM) [2]: 99 pM
B5: Peptide 153 (peptide)
peptide: H[Aib]QGTFTSDVSK[αMeF]LDSK([AEEA-AEEA-γGlu-C20 diacid])RAQDFVRWLL[Aib]E-OH
modifications: N-terminus assumed
SMILES: CC(C)C[C@H](NC(=O)[C@H](Cc1c[nH]c2ccccc12)NC(=O)[C@H](CCCNC(=N)N)NC(=O)[C@@H](NC(=O)[C@H](Cc1ccccc1)NC(=O)[C@H](CC(=O)O)NC(=O)[C@H](CCC(N)=O)NC(=O)[C@H](C)NC(=O)[C@H](CCCNC(=N)N)NC(=O)[C@H](CCCCNC(=O)COCCOCCNC(=O)COCCOCCNC(=O)CC[C@H](NC(=O)CCCCCCCCCCCCCCCCCCC(=O)O)C(=O)O)NC(=O)[C@H](CO)NC(=O)[C@H](CC(=O)O)NC(=O)[C@H](CC(C)C)NC(=O)[C@](C)(Cc1ccccc1)NC(=O)[C@H](CCCCN)NC(=O)[C@H](CO)NC(=O)[C@@H](NC(=O)[C@H](CC(=O)O)NC(=O)[C@H](CO)NC(=O)[C@@H](NC(=O)[C@H](Cc1ccccc1)NC(=O)[C@@H](NC(=O)CNC(=O)[C@H](CCC(N)=O)NC(=O)C(C)(C)NC(=O)[C@@H](N)Cc1c[nH]cn1)[C@@H](C)O)[C@@H](C)O)C(C)C)C(C)C)C(=O)N[C@@H](CC(C)C)C(=O)NC(C)(C)C(=O)N[C@@H](CCC(=O)O)C(=O)O
